# Patent US20260167959A1, “APTAZYME-BASED REGULATABLE GENE EXPRESSION SYSTEMS” (REJUVENATE BIO INC, priority 2022, published 2026)
# Tested on: Renilla luciferase RNA
# Experiment: Barcoded aptazyme variant library screen: un-cleaved Renilla luciferase RNA by barcode read counts, HEK293-T cells
# Assay type: cell-based
# Details: un-cleaved Renilla luciferase RNA by barcode read counts; with 1 mM theophylline (ON) over without theophylline (OFF); HEK293-T cells; triplicate
# Method in brief: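 Barcode sequencing of cDNA versus DNA, normalized per aptazyme, gave the un-cleaved Renilla luciferase RNA fraction and fold-change with versus without theophylline (triplicates). Library: T3H48 ribozyme with one of seven theophylline aptamer variants inserted at each position, placed in the Renilla 3′ UTR of a dual-luciferase vector.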
row,Molecule,Fold change in RNA expression between the ON state and the OFF state
1,"RA339 (nucleic acid, expressed or natural sequence) DNA: GCGCGTCCTGGATTGGAATACCAGCATCGTCTTGATGCCCTTGGAAGTCCCGCGGAAACGCGTACATCCAGCTGACGAGTCCCAAATAGGACGAAACGCGC",0.9
2,"RA361 (nucleic acid, expressed or natural sequence) DNA: GCGCGTCCTGGATTCGCGGAAACGCGTACATCCAGCTGACGAGTCCCAAATAGGACGAAACGCCCGGAATACCAGCATCGTCTTGATGCCCTTGGAAGTCCGGGC",0.8
3,"RA351 (nucleic acid, expressed or natural sequence) DNA: GCGCGTCCTGGATTCGCGGAAACGCGTACATCCAGCGAGAATACCAGCATCGTCTTGATGCCCTTGGAAGTCTCTGACGAGTCCCAAATAGGACGAAACGCGC",0.9
4,"RA359 (nucleic acid, expressed or natural sequence) DNA: GCGCGTCCTGGATAGAATACCAGCATCGTCTTGATGCCCTTGGAAGTCTTCGCGGAAACGCGTACATCCAGCTGACGAGTCCCAAATAGGACGAAACGCGC",0.8
5,"RA346 (nucleic acid, expressed or natural sequence) DNA: GCGCGTCCTGGATTCGCGGAAACGCGTACATCCAGCTGGAATACCAGCATCGTCTTGATGCCCTTGGAAGTCCGACGAGTCCCAAATAGGACGAAACGCGC",0.9
6,"RA338 (nucleic acid, expressed or natural sequence) DNA: GCGCGTCCTGGATTCGCGGAAACGAGAATACCAGCATCGTCTTGATGCCCTTGGAAGTCTCGCGCGTACATCCAGCTGACGAGTCCCAAATAGGACGAAACGCGC",0.9
7,"RA337 (nucleic acid, expressed or natural sequence) DNA: GCGCGTAGAATACCAGCATCGTCTTGATGCCCTTGGAAGTCTCCTGGATTCGCGGAAACGCGTACATCCAGCTGACGAGTCCCAAATAGGACGAAACGCGC",0.9
8,"RA343 (nucleic acid, expressed or natural sequence) DNA: GCGCGTCCGGAATACCAGCATCGTCTTGATGCCCTTGGAAGTCCGCTGGATTCGCGGAAACGCGTACATCCAGCTGACGAGTCCCAAATAGGACGAAACGCGC",0.9
9,"RA344 (nucleic acid, expressed or natural sequence) DNA: GCGCGTCCTGGATTCGCGGAAACCCGGAATACCAGCATCGTCTTGATGCCCTTGGAAGTCCGGGCGTACATCCAGCTGACGAGTCCCAAATAGGACGAAACGCGC",0.9
10,"RA355 (nucleic acid, expressed or natural sequence) DNA: GCGCGTCCTGGATTCGCGGAAACGCGTACATCGAGAATACCAGCATCGTCTTGATGCCCTTGGAAGTCTCCAGCTGACGAGTCCCAAATAGGACGAAACGCGC",0.9
11,"RA357 (nucleic acid, expressed or natural sequence) DNA: GCGCGTCCTGGATTCGCGGAAACGCGTACATCCAGCTGACGAGTCCCAAATAGGACGGGAATACCAGCATCGTCTTGATGCCCTTGGAAGTCCAAACGCGC",0.8
12,"RA349 (nucleic acid, expressed or natural sequence) DNA: GCGCGTCCTGGATTCGCGGAAACGCGTACATCCAGCTGACGAGGAGAATACCAGCATCGTCTTGATGCCCTTGGAAGTCTCTCCCAAATAGGACGAAACGCGC",0.9
13,"RA358 (nucleic acid, expressed or natural sequence) DNA: GCGCGTCCTGGATTCGCGGAAACGCGTACATCCAGCTGACGAGCGGAATACCAGCATCGTCTTGATGCCCTTGGAAGTCCGTCCCAAATAGGACGAAACGCGC",0.8
14,"RA347 (nucleic acid, expressed or natural sequence) DNA: GCGCGTCCTGGATTCGCGGAAACGCAGAATACCAGCATCGTCTTGATGCCCTTGGAAGTCTGTACATCCAGCTGACGAGTCCCAAATAGGACGAAACGCGC",0.9
15,"RA354 (nucleic acid, expressed or natural sequence) DNA: GCGCGTCCTGGATTCGCGGAAACGCGTACATCCAGCTGACGAGTCCCAAATAGGAGTGATACCAGCATCGTCTTGATGCCCTTGGCAGCACTACGAAACGCGC",0.9
16,"RA342 (nucleic acid, expressed or natural sequence) DNA: GCGCGTCCTGGATTCGCGGAAACGCGTACGGAATACCAGCATCGTCTTGATGCCCTTGGAAGTCCGCATCCAGCTGACGAGTCCCAAATAGGACGAAACGCGC",0.9
17,"RA340 (nucleic acid, expressed or natural sequence) DNA: GCGCAGTGATACCAGCATCGTCTTGATGCCCTTGGCAGCACTGTCCTGGATTCGCGGAAACGCGTACATCCAGCTGACGAGTCCCAAATAGGACGAAACGCGC",0.9
18,"RA348 (nucleic acid, expressed or natural sequence) DNA: GCGCGTCCTGGATTCGCGGAAACGCGTACATCCAGCTGACGACGAGAATACCAGCATCGTCTTGATGCCCTTGGAAGTCTCGGTCCCAAATAGGACGAAACGCGC",0.9
19,"RA345 (nucleic acid, expressed or natural sequence) DNA: GCGCGTCCTGGATTCGCGGAAACGCGTACATCCAGCTGACGAGTCCCAAATAGGACGAAACGCGAGAATACCAGCATCGTCTTGATGCCCTTGGAAGTCTC",0.9
20,"RA356 (nucleic acid, expressed or natural sequence) DNA: GCGCGTCCTGGATTCGCGGAAACGCGTACATCCAGCTGACGAGTCCCAAATAGGACGAAAGAGAATACCAGCATCGTCTTGATGCCCTTGGAAGTCTCCGCGC",0.8
21,"RA341 (nucleic acid, expressed or natural sequence) DNA: GCGGAATACCAGCATCGTCTTGATGCCCTTGGAAGTCCGCGTCCTGGATTCGCGGAAACGCGTACATCCAGCTGACGAGTCCCAAATAGGACGAAACGCGC",0.9
22,"RA360 (nucleic acid, expressed or natural sequence) DNA: GCAGAATACCAGCATCGTCTTGATGCCCTTGGAAGTCTGCGTCCTGGATTCGCGGAAACGCGTACATCCAGCTGACGAGTCCCAAATAGGACGAAACGCGC",0.8
23,"RA350 (nucleic acid, expressed or natural sequence) DNA: GCGCAGAATACCAGCATCGTCTTGATGCCCTTGGAAGTCTGTCCTGGATTCGCGGAAACGCGTACATCCAGCTGACGAGTCCCAAATAGGACGAAACGCGC",0.9
24,"RA336 (nucleic acid, expressed or natural sequence) DNA: GCGCGTCCTGGATTCGCGGAAAGTGATACCAGCATCGTCTTGATGCCCTTGGCAGCACTACGCGTACATCCAGCTGACGAGTCCCAAATAGGACGAAACGCGC",0.9
25,"RA353 (nucleic acid, expressed or natural sequence) DNA: GCGCGTCCTGGATTCGCGGAAACGCGTACATCCAGCTGACGAGTCCCAAATAGGACGAAACGCCGGAATACCAGCATCGTCTTGATGCCCTTGGAAGTCCGGCGC",0.9
26,"RA352 (nucleic acid, expressed or natural sequence) DNA: GCGCGTCCTGGATTCGCGGAAACGCGTACATCCAGCTGACGAGTCCCAAATAGGACGAAACGCGCGAGAATACCAGCATCGTCTTGATGCCCTTGGAAGTCTCGC",0.9

# Same assay, conditions: un-cleaved Renilla luciferase RNA, HEK293-T cells cultured with 1 mM theophylline (ON) over without theophylline (OFF); barcode read counts, triplicate
row,Molecule,Fold change in RNA expression between the ON state and the OFF state
1,"RA034 (nucleic acid, expressed or natural sequence) DNA: GCGCGTCCTGGATTCGCGGAAACGCGTACATCCAGCTGACGAGAGAATACCAGCATCGTCTTGATGCCCTTGGAAGTCTCGTCCCAAATAGGACGAAACGCGC",2.3 fold
2,"RA033 (nucleic acid, expressed or natural sequence) DNA: GCGCGTCCTGGATTCGCGGAAACGCGTACATCCAGCTGACGAGTCCCAAATCCGGAATACCAGCATCGTCTTGATGCCCTTGGAAGTCCGGAGGACGAAACGCGC",2.3 fold
3,"RA035 (nucleic acid, expressed or natural sequence) DNA: GCGCGTCCTGGATTCGCGGAAACGCGTACATCCAGCTGACGAGTCCCAAATAGGACGAAACGGAATACCAGCATCGTCTTGATGCCCTTGGAAGTCCGCGCGC",2.2 fold
